Data published in patent CN108059681A (BEIJING GEGEN BIOTECHNOLOGY CO LTD; YICON BEIJING MEDICAL …, dated 2018).

Target: T1, EGFR蛋白 (UniProt P00533 25-645, limits assumed)
T1 construct: The construct is not described; also called 表皮生长因子受体
Test: affinity constant; method not stated

B1: EGFR ScFv (抗EGFR单链抗体) (scFv)
scFv: QVQLQQWGGGVVQPGRSLRLSCAASGFTFSSYAMHWVRQAPGKGLEWVAVISYDGSNKYYADSVKGRFTISRDNSKNTLYLQMDSLRAEDTAVYYCARSGRYFDWLLPFDYGGGGSGGGGSELALTQPPSASVAPGKTARITCGGNNIGSKSVHWYQQKPGQAPVLVIYYDSDRPSGIPERFSGSNSGNTATLTISRVEAGDEADYYCQVWDSSSDQGVFGGGTQLTVL
notes: Human scFv from a phage library, expressed in E. coli; also called 抗EGFR ScFv
Kd: 284 pM
